# Results published in patent US20250381289A1 (Genmab, published 2025).
# T1: human Sema3A recombinant protein (human, UniProt Q14563 21-771, limits assumed)
# T1 sequence (looked up): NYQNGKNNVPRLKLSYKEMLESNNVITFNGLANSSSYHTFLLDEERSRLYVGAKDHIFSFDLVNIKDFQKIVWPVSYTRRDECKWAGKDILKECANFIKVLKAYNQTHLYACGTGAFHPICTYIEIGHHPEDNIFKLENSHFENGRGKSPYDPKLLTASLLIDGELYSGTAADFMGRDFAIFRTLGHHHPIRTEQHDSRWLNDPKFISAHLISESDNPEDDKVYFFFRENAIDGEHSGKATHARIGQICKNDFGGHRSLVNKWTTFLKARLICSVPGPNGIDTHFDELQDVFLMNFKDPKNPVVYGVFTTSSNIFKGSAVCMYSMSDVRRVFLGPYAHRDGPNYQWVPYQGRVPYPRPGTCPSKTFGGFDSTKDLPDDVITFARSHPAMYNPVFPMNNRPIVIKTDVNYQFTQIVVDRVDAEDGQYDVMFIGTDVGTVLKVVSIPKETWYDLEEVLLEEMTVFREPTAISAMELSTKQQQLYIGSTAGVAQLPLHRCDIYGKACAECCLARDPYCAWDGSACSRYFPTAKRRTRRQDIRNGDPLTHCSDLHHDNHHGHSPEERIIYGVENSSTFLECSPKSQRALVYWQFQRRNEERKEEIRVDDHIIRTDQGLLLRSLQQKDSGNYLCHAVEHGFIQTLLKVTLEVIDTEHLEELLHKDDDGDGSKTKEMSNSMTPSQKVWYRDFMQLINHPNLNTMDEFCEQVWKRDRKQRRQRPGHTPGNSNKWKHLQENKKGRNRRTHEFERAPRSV
# T2: human HER4 recombinant protein (human, UniProt Q15303 26-649, limits assumed)
# T2 sequence (looked up): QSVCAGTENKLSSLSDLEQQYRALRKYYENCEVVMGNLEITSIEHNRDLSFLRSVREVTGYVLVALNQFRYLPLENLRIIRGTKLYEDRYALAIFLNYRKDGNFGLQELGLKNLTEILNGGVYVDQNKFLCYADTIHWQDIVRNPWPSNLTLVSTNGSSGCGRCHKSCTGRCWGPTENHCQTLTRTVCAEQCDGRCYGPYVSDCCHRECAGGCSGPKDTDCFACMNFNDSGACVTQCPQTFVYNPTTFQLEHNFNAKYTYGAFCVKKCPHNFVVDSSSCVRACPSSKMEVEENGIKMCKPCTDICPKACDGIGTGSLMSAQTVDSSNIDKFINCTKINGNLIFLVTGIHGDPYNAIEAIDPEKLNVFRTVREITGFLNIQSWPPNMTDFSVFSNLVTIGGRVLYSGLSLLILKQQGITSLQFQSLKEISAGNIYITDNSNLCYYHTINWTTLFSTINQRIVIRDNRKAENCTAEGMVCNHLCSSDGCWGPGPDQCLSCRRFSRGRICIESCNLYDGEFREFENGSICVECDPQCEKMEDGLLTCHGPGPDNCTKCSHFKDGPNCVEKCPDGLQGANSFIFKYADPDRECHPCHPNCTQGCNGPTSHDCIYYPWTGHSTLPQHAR
# B1: AZD9592-Ab (bispecific antibody, human IgG1, kappa, lambda)
# anti EGFR heavy chain: QVQLVQSGAEVKKPGSSVKVSCKASGGTFSDNDFSWVRQAPGQGLEWMGAIVAVFRTETYAQKFQDRVKITADISTRTTYMELSSLRSEDTAVYYCARRLMSAISGPGAPLLMWGQGTLVTVSSASTKGPSVCPLAPSSKSTSGGTAALGCLVKDYFPEPVTVSWNSGALTSGVHTFPAVLQSSGLYSLSSVVTVPSSSLGTQTYICNVNHKPSNTKVDKRVEPKSVDKTHTCPPCPAPEFEGGPSVFLFPPKPKDTLMISRTPEVTCVVVDVSHEDPEVKFNWYVDGVEVHNAKTKPREEQYNSTYRVVSVLTVLHQDWLNGKEYKCKVSNKALPASIEKTISKAKGQPREPQVYTLPPCREEMTKNQVSLWCLVKGFYPSDIAVEWESNGQPENNYKTTPPVLDSDGSFFLYSKLTVDKSRWQQGNVFSCSVMHEALHNHYTQKSLSLSPGK
# anti EGFR light chain: QSALTQPRSVSGSPGQSVTISCTGTSSDVGGYNYVSWYQQHPGKAPKLMIYDVSKRPSGVPDRFSGSKSGNTASLTISGLQAEDEADYYCSSYTSSDTLEIFGGGTKLTVLGQPKAAPSVTLFPPCSEELQANKATLVCLISDFYPGAVTVAWKADSSPVKAGVETTTPSKQSNNKYAASSYLSLTPEQWKSHRSYSCQVTHEGSTVEKTVAPTEVS
# anti cMET heavy chain: QVQLVQSGAEVKKPGASVKVSCKASGYTFTDYYIHWVRQATGQGLEWMGWMNPNSGNTGYAQKFQGRVTMTRDTSISTAYMELSSLRSEDTAVYYCARGQGYTHSWGQGTMVTVSSASTKGPSVFPLAPSSKSTSGGTAALGCLVKDYFPEPVTVSWNSGALTSGVHTFPAVLQSSGLYSLSSVVTVPSSSLGTQTYICNVNHKPSNTKVDKRVEPKSCDKTHTCPPCPAPEFEGGPSVFLFPPKPKDTLMISRTPEVTCVVVDVSHEDPEVKFNWYVDGVEVHNAKTKPREEQYNSTYRVVSVLTVLHQDWLNGKEYKCKVSNKALPASIEKTISKAKGQPREPQVCTLPPSREEMTKNQVSLSCAVKGFYPSDIAVEWESNGQPENNYKTTPPVLDSDGSFFLVSKLTVDKSRWQQGNVFSCSVMHEALHNHYTQKSLSLSPGK
# anti cMET light chain: DIQMTQSPSTLSASVGDRVTITCRASEGIYHWLAWYQQKPGKAPKLLIYKASSLASGVPSRFSGSGSGTEFTLTISSLQPDDFATYYCQQYSNYPPTFGGGTKLEIKRTVAAPSVFIFPPSDEQLKSGTASVVCLLNNFYPREAKVQWKVDNALQSGNSQESVTEQDSKDSTYSLSSTLTLSKADYEKHKVYACEVTHQGLSSPVTKSFNRGEC
# notes: also called RAA22/B09-TM
# What was measured:
# [1] = biological target: T1, human Sema3A recombinant protein; test: ELISA, coated human Sema3A, anti-human Fc-HRP
# Procedure: (§1) Binding specificity was tested by ELISA according to the standard protocol. Specifically, 96-well plates were coated with 100 ng/well human EGFR, human HER2, human HER3, human HER4, human cMET, human Sema3A recombinant protein in PBS, incubated overnight at 4° C. Plates were washed twice by TBS+0.05% Tween20. 200 μL blocking buffer (2% BSA in PBS) was added to each well and incubated at 37° C. for 2 h. After wash, Serial diluted antibodies were added to the ELISA plate with 100 μL per well and incubated for 1 h at room temperature. Then plates were washed for 3 times. HRP conjugated anti-human Fc antibody solution (Abcam, ab98624) was added to the plate with 100 μL per well. The plates were incubated at room temperature for 1 h and then washed for 3 times. […] Finally, read the absorbance at A₄₅₀ and A₆₃₀.
# [2] = biological target: human HER2 recombinant protein (human, UniProt P04626 23-652); test: ELISA, coated human HER2, anti-human Fc-HRP
# Procedure: as §1
# Human cMET = biological target: T3, Human cMET (human); test: ELISA, coated human cMET, anti-human Fc-HRP
# T3 construct: recombinant protein; also called human cMET recombinant protein
# T3 sequence (P08581 whole entry): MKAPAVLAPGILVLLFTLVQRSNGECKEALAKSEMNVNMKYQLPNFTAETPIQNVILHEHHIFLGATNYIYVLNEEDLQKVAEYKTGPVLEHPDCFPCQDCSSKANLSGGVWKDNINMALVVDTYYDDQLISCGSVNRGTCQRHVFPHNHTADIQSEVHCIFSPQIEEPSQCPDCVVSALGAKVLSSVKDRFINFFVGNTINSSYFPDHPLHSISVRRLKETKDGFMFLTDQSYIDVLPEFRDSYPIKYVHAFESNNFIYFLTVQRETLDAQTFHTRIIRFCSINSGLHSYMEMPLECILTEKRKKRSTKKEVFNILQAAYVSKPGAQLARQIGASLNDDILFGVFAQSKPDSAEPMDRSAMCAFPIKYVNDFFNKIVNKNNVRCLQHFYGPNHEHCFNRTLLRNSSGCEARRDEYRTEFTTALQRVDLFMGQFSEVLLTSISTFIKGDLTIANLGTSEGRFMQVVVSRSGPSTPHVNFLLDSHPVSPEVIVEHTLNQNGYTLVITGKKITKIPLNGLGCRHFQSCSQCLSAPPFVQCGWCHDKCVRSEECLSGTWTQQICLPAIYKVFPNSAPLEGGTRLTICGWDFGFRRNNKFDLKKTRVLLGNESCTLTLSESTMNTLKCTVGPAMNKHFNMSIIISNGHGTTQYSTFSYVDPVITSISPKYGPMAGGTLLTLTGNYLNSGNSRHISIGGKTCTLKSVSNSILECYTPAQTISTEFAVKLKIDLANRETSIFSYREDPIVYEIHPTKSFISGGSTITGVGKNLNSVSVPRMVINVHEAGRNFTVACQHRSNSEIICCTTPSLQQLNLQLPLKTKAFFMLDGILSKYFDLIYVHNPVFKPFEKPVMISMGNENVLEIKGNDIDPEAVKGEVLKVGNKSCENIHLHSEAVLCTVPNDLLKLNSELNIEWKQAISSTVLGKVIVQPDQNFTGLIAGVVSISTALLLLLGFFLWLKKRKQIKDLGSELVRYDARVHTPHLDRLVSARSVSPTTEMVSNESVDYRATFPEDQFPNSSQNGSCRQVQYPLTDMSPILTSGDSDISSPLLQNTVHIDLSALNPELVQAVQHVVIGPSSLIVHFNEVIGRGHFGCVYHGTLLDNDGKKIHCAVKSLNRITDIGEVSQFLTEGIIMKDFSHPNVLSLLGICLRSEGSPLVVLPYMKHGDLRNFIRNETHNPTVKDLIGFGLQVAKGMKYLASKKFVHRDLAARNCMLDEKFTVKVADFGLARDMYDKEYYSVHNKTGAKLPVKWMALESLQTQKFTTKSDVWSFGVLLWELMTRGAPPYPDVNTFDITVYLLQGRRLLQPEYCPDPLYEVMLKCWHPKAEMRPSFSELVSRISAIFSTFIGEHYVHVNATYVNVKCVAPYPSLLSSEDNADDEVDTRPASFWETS
# Procedure: as §1
# [3] = biological target: T4, cMET on EGFR and cMET co-expressed tumor cell lines (UniProt P08581 25-1390, limits assumed); test: flow cytometry, SNU-5 cells (co-express EGFR and cMET; both arms contribute)
# T4 construct: whole, on cells
# T4 sequence (P08581 25-1390 limits assumed): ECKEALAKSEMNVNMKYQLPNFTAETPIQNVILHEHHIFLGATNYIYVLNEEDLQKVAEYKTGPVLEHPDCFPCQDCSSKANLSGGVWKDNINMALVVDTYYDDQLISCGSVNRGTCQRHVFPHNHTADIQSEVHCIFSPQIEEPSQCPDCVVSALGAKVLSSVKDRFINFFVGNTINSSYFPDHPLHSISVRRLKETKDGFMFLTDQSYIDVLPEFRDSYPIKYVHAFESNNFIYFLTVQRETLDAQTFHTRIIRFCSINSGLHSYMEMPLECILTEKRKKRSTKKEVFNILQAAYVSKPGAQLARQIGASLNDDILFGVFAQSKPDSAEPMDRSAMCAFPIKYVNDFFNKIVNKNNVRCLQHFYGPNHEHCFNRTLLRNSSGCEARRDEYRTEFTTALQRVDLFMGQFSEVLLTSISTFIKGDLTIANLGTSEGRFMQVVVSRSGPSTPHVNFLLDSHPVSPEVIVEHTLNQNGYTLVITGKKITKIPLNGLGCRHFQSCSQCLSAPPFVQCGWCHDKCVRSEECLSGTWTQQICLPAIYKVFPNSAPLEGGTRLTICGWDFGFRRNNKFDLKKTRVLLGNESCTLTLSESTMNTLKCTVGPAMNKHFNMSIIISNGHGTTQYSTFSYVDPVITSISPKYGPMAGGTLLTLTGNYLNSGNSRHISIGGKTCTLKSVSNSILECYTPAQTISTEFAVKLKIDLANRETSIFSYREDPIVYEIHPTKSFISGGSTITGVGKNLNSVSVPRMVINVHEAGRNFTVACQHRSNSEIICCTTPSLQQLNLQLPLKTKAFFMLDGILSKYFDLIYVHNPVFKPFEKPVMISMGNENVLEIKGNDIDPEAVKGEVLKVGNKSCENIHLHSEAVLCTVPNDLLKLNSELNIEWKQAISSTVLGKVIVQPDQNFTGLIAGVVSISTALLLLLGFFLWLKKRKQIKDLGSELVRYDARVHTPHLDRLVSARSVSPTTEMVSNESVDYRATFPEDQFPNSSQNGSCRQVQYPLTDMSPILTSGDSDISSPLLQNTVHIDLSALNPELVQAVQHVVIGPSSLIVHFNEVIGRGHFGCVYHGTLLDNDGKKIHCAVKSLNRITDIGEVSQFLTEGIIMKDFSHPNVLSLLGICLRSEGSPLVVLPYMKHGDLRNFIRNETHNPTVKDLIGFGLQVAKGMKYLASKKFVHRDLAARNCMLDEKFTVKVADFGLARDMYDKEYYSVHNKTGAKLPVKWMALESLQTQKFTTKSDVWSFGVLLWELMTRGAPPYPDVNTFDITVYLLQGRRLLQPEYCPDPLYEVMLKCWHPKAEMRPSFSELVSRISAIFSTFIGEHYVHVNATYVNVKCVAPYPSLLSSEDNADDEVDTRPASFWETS
# [4] = biological target: T5, EGFR on EGFR and cMET co-expressed tumor cell lines (UniProt P00533 25-1210, limits assumed); test: as above
# T5 construct: whole, on cells
# [5] = biological target: T4, cMET on EGFR and cMET co-expressed …; test: flow cytometry, A431 cells (co-express EGFR and cMET; both arms contribute)
# [6] = biological target: T5, EGFR on EGFR and cMET co-expressed …; test: as above
# [7] = biological target: T2, human HER4 recombinant protein; test: ELISA, coated human HER4, anti-human Fc-HRP
# Procedure: as §1
# [8] = biological target: T4, cMET on EGFR and cMET co-expressed …; test: flow cytometry, EBC-1 cells (co-express EGFR and cMET; both arms contribute)
# [9] = biological target: T5, EGFR on EGFR and cMET co-expressed …; test: as above
binder,measurement,setting,value
B1,binding result,[1],no binding (tested: about 120 nM)
same,binding result,[2],no binding (tested: about 130 nM)
same,EC50 (read off the curve),Human cMET,~4 nM
same,EC50 (read off the curve),[3],~2 nM
same,EC50 (read off the curve),[4],~2 nM
same,EC50 (read off the curve),[5],~10 nM
same,EC50 (read off the curve),[6],~10 nM
same,binding result,[7],no binding (tested: about 130 nM)
same,EC50 (read off the curve),[8],~1 nM
same,EC50 (read off the curve),[9],~1 nM
